Tested on: MS2 coat protein
Experiment: apparent KD of MS2 coat protein; designed switch direction (-1 OFF switch, 1 ON switch): -1; higher = weaker reporter binding
Summary of the method: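 For each design, the apparent KD is the median over clusters of curves fitted to normalised cluster fluorescence. Clusters held RNA switches with common flanks, transcribed on Illumina chips by stalled E. coli RNA polymerase. These were titrated with SNAP-549-labelled MS2 coat protein, doubling from 0.7 or 1.5 nM to 3 µM, without input, with 200 uM small-molecule ligand, or with an oligonucleotide input.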

[1] = Eterna round: R95, input ligand: microRNA oligo, concentration not stated
[2] = Eterna round: R95, input ligand: FMN 200 uM
[3] = Eterna round: R95, input ligand: none
[4] = input ligand: microRNA oligo, concentration not stated

Sequence | apparent KD of MS2 coat protein [1] | apparent KD of MS2 coat protein (input ligand: FMN 200 uM) | apparent KD of MS2 coat protein (input ligand: none) | apparent KD of MS2 coat protein [2] | apparent KD of MS2 coat protein [3] | apparent KD of MS2 coat protein [4]
GGAGUGUGAGGAUAUAUGGUGAAGGUGAAGAGAGAGGAGGAGUAGAAGGUACAUGAGGAUCACCCAUGUUUAGG [JR_Exclu4_Sub072] (puzzle: Exclusion 4) | 38.5 nM | – | – | – | – | –
UUCGUGUGAGGAUAUCGAUUAUGGAAGUCUAGAUCCAUACGCGAGAAGGCACAUGAGGAUCACCCAUGUAAUGG [jl-ex4-4.34 ViennaUCT mod] (Eterna round: R97, puzzle: Exclusion 4) | – | 38 nM | 227 nM | – | – | –
AACGAGGCAGGAUAUACAUGAGGAUCACCCAUGUGCUUGCAUGGCGUGGGACGUCAACGUAGAAGGGCCAUGCC [EX3 #67] (Eterna round: R97, puzzle: Exclusion 3) | – | 43.1 nM | 45.6 nM | – | – | –
AGUAGAUCUACGCUUGCGUGGAUCUGCAAAGCAGGUGUUACAUGAGGAUCACCCAUGUCCUCAUUUGCUCGUCUUAG [JL turnoff v2 99.08] (puzzle: Sensor v3, turn-off variant 2) | 563 nM | – | – | 71.8 nM | 65.1 nM | –
GAAAAGGUAGGAUAUACGAAAAAAAAGGGUAGAAAAAAAGCACAUGAGGAUCACCCAUGUAGAAGGACCAAAAG [salish99_ex2_r3_018] (Eterna round: R96, puzzle: Exclusion 2) | – | – | – | – | – | 29.6 nM
ACUUAUAGAGGAUAUACAGUUUAUUACAUGAGGAUCACCCAUGUUCUUCAAUGUCCUGAAGUAGAAGGCUAAGGAA [Ex5 Malc#5 mod4] (Eterna round: R97, puzzle: Exclusion 5) | – | 19.7 nM | 16.3 nM | – | – | –
ACUCGUGCCCGAGGAUAUUACAGCAACCUGGCUUAAGAAGGCGGGACAUGAGGAUCACCCAUGUUCUGCGCAUCGGUCGUCAGA [Anzatete] (Eterna round: R96, puzzle: Exclusion NG 1) | – | 18.8 nM | 13 nM | – | – | 9.36 nM
GACUGGACAGGAUAUGUUCUUGAGCACUUGAGGAUCACCCAAGUCAUCAAGAACUCAGGCACAGAAGGGUUUAUGG [salish99_ex5_r4_010] (Eterna round: R97, puzzle: Exclusion 5) | – | 23.3 nM | 12.1 nM | – | – | –
UCGGGAUGAGGAUAUACAUAGAAAUAGAUUCAUGUAAAACUACAUGAGGAUCACCCAUGUAGAAGGCAUUCCGU [Mat - Exclusion 2 - JL Mod - D58] (Eterna round: R97, puzzle: Exclusion 2) | – | 110 nM | 24.2 nM | – | – | –
GAAGAGACAGGAUAUACAUGAGGAUCACCCAUGUGAGUAAGGUAGAGGCGGAGUAGAUGUAGAAGGGUCAAAGA [JR_Exclu3_Sub015] (puzzle: Exclusion 3) | 40.5 nM | – | – | 80.5 nM | 42.8 nM | –
AGGUAGUCAGGAUAUUAAGAGUAGCGGGAUAACGCUACGAGUGAGAAGGGACAUGAGGAUCACCCAUGUUUUAA [JR_Ex4_Sub071] (Eterna round: R97, puzzle: Exclusion 4) | – | 23.4 nM | 23.2 nM | – | – | –
GCAGCAUAGUUUACUGACUGUUACAUGAGGAUCACCCAUGUUCAGGAUAUGGUCUGGAUUACAGGCCAGAAGGGAACAAGCUGC [Eli exng3 - 030] (Eterna round: R96, puzzle: Exclusion NG 3) | – | 9.17 nM | 10.6 nM | – | – | 10.9 nM
AGACAACAUGAGGAUCACCCAUGUAAGGAUAUACAAGAUUUGAGAAACGGACUGCCUUGUAGAAGGUACAGGUG [Eternabot (L2) Solution 9] (Eterna round: R97, puzzle: Exclusion 1) | – | 51 nM | 36.7 nM | – | – | –
CAAAGAACAUGAGGAUCACCCAUGUGAACCUUCGUUCGACCUCAGGAUAUCCGCCACCGUCCGCAGGAGAAGGGAGGGAAAAUA [Isinar] (Eterna round: R96, puzzle: Exclusion NG 3) | – | 138 nM | 72.8 nM | – | – | 64.9 nM
UUGUCGGCAGGAUAUACAUGAGGAUCACCCAUGUAAAUUUUUCGUUUAACUUGAAUGUGUAGAAGGGCCAUGUA [Ex3 #70] (Eterna round: R97, puzzle: Exclusion 3) | – | 28.2 nM | 25.2 nM | – | – | –
AGGGCGGGAGGAUAUCCAAUAUAUGACAUGAGGAUCACCCAUGUUUCCACUCGUACCUCCGGAGAAGGCCCGCCGA [Ex5 #25] (Eterna round: R97, puzzle: Exclusion 5) | – | 21.2 nM | 21.5 nM | – | – | –
CAGUACUGAGGAUAUACAUGAGGAUCACCCAUGUGUUCCAGCUAGGAUACUAGCAAUGGAAGAAGGCAGUACUG [Mat - Exclusion 3 - Eli Mod - D1] (Eterna round: R97, puzzle: Exclusion 3) | – | 17.2 nM | 16.8 nM | – | – | –

Sequence | apparent KD of MS2 coat protein [1] | apparent KD of MS2 coat protein (input ligand: FMN 200 uM) | apparent KD of MS2 coat protein (input ligand: none) | apparent KD of MS2 coat protein [2] | apparent KD of MS2 coat protein [3] | apparent KD of MS2 coat protein [4]
AUAUAUAUAGGAUAUACAUGAGGAUCACCCAUGUAAAGUAGCUUGCGUACAGGCAGAUGUAGAAGGAUAUAUAU [Mod of JL 15 - Jieux - Exclusion 3] (Eterna round: R97, puzzle: Exclusion 3) | – | 29.2 nM | 33.1 nM | – | – | –
GAAAAGGUAGGAUAUACGAUAAGAAAGGGUAGAGAAGAAACACAUGAGGAUCACCCAUGUAGAAGGACCAAAAG [salish99_ex2_r3_100] (puzzle: Exclusion 2) | 23.6 nM | – | – | 146 nM | 33.2 nM | –
UCGAGGUCAGGAUAUACAUGAGGAUCACCCAUGUUGAGAGAAGGUAGGAAAAGAGUAGGUAGAAGGGACGAGAG [JR_Exclu3_Sub046] (puzzle: Exclusion 3) | 26.1 nM | – | – | – | – | –
ACAUGAGGAUCACCCAUGUGACAAGAAUGGCUGAUACAGAGACAGGAUAUAGGUGCAUAUCUAACCUAGAAGGGUCAUGACUGG [Deportation 73 - Jieux - Exclusion NG 3] (Eterna round: R96, puzzle: Exclusion NG 3) | – | – | – | – | – | 26.6 nM
AUAUUUAAGCUUUUGUGAAACAUGAGGAUCACCCAUGUCCUCAUACCUGGACAUUUAAGUCUAGGAGCUCGUCUUAU [Last end dangle 1] (Eterna round: R97, puzzle: Sensor, turn-off variant 1) | – | 518 nM | 558 nM | – | – | –
AGAGACCGAGGAUAUACAUGAGGAUCACCCAUGUUGUUAGGUGAUGGAUUAAUGAUUGGUAGAAGGCGGAGAGA [Seems to work] (Eterna round: R97, puzzle: Exclusion 3) | – | 340 nM | 227 nM | – | – | –
UCACGGGACUGAGGAUAUACAUUUAUUAUUUUUGUAGAAGGCAGAAUGUUAGUUUUUUCACUAUACAUGAGGAUCACCCAUGUU [JR_ExcNG1_Sub084] (Eterna round: R96, puzzle: Exclusion NG 1) | – | – | – | – | – | 20.6 nM
GAUUUAGAGCAGGAUAUCAUAGAAUUAUAUGAAUGAGAAGGGCUCACAUGAGGAUCACCCAUGUGGUCCUAGAU [JL Dibiri mod 22] (Eterna round: R96, puzzle: Exclusion 6) | – | 235 nM | 25.4 nM | – | – | 21.7 nM
AAUUUACAUGAGGAUCACCCAUGUGAGGAUAUAUGCAAAUAAUUUUUAUUAAUAAAGCAUAGAAGGCGCGUGAU [JR_Exc1_Sub042] (Eterna round: R97, puzzle: Exclusion 1) | – | 188 nM | 73 nM | – | – | –
GCCGAAAAUGUGAGGAUAUACCUAUGGAUACAUAGGUAGAAGGCACAUGAGGAUCACCCAUGUGUCCAAACGGC [Eli bmx4 4.22] (Eterna round: R97, puzzle: Brourd's mod of Exclusion 4) | – | 58.2 nM | 14.5 nM | – | – | –
AUGUGUAUAGUGAGGAUAUUGCCCAGGAAAUAGGGCAAGAAGGCACAUGAGGAUCACCCAUGUGGAUGUUCUGA [Eternabot (L2) Solution 85] (Eterna round: R97, puzzle: Brourd's mod of Exclusion 4) | – | 412 nM | 37.5 nM | – | – | –
UAAUUGUGAGGAUAUUCGUUUUUCACGGAGACGUGAAGAACGGAGAAGGCACAUGAGGAUCACCCAUGUUCCUU [Mat - Exclusion 4 - JL Mod - D15] (Eterna round: R97, puzzle: Exclusion 4) | – | 89.3 nM | 19.5 nM | – | – | –
ACACAAGCCCUUUGCUCGUUUUAAUACAGCGGGCUCUCCACAUGAGGAUCACCCAUGUAGGCCUUGUUCCAAGGCCG [Maerarce] (puzzle: Sensor v3, turn-off variant 2) | 22.3 nM | – | – | 22.6 nM | 21.8 nM | –
ACAAGCUAUCUCUUAUCUUACAUGAGGAUCACCCAUGUUUUUUCAAUUUUGUUUGGUCUCCUUUGUGCUCGUCUUAU [JR_STOV1_Sub053] (Eterna round: R97, puzzle: Sensor, turn-off variant 1) | – | 53.2 nM | 55.2 nM | – | – | –
AAUCCACAUGAGGAUCACCCAUGUGAGGAUAUGUCCAUAUUCGGCAAAUCGGAUAUGGACAGAAGGCACAUAAA [JR_Exclusion1_Sub013] (Eterna round: R96, puzzle: Exclusion 1) | – | 99.5 nM | 26.5 nM | – | – | 21 nM
CGGGCCGGCCUUCCGGCCGGCCCGACAUGAGGAUCACCCAUGUAGGAUAUCCCGGCUGCCGGCCGGGAGAAGGGCGUGCGUCCC [-49.5, -48.5 kcal, 14% A] (Eterna round: R96, puzzle: Exclusion NG 3) | – | 39.8 nM | 33.5 nM | – | – | 27.6 nM
AGGAUGUUAGGAUAUCGGAGAUGCUGGAGGAGGUGGAUUUACGAGAAGGAACAUGAGGAUCACCCAUGUGGAAG [JR_Exclu4_Sub046] (puzzle: Exclusion 4) | 25.8 nM | – | – | 35.1 nM | 27.2 nM | –
